Reference: publication doi:10.1101/2025.03.30.646023 (bioRxiv, 2025)

Molecular target: SARS-CoV-2 (ancestral strain) RBD protein (SARS-CoV-2 ancestral strain, UniProt P0DTC2)
Assay: SPR

B1: PRO-37587 (antibody, V domains shown)
VH: QVQLVQSGAEVKKPGSSVKVSCKASGDTSDTYTISWVRQAPGQGLEWMGRIILLSGYANYAQKIQGRVTITADKSTSTAYMELTSLRSDDTAVYYCARGFNGDYYGWGDDDAFDFWGQGTLVTVYS
VL: QTVLTQPPSVSGAPGQRVTISCTGSSSNIGAGYRVHWYQQLPGTAPKLLIAGRSNRPSGVPDRFSGSKSGTSASLAITGLQAEDEADYYCQSYDSSLFDPHWVFGGGTKLTVL
B1: binds.
